From patent CN112225809A (FUZHOU CHUANGFANG PHARMACEUTICAL TECH CO LTD, dated 2021)

What was measured:
[1] = molecular target: T1, Human PD1/PDCD1 Protein Biotinylated (Sinobiological, Cat.No.10377-H03H-B) (human, UniProt Q15116 25-167, biotinylated); experiment: BLI (Octet Red96), biotinylated PD-1 on SA sensor, antibody in solution from 50 nM in two-fold dilutions
T1 construct: Bought reagent; also called 抗原; 人PD-1

[2] = molecular target: T2, hPD1/Fc of human IgG1 (fluorescently labelled) (human, UniProt Q15116 25-167, limits assumed, labelled with Alexa Fluor 488 (Example 2); printed as hPD-1/hFc-FITC in Example 5.5); experiment: flow cytometry blocking assay: Alexa Fluor 488 labelled hPD1/Fc on SPC-A1-PDL1 cells
T2 construct: also called hPD-1/hFc-FITC; 荧光标记的PD1(Dimeric); not shown: Fc of human IgG1
T2 sequence (Q15116 25-167 limits assumed): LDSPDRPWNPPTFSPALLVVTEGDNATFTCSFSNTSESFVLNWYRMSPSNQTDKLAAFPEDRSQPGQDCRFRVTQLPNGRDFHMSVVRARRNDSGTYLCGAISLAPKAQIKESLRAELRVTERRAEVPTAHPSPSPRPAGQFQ

T1 sequence (Q15116 25-167 limits assumed): as above

Kd [1] | koff [1] | kon [1] | binding result [2] | Binder
3.34 pM | 5.43e-06 s⁻¹ | 1.63e+06 M⁻¹ s⁻¹ | – | hUM1-30 (antibody, human IgG4 S228P, kappa, V domains shown, Humanised from UM1-56; also called 人源化PD-1单克隆抗体(hUM1-30); UM1-56H-1 + UM1-56K-2) VH: EVQLVESGGGLVQPGGSLRLSCAASGFTFSTYGMSWVRQAPGKGLEWVSTISGGGRYTYYPDSVKGRFTISRDNSKNTLYLQMNSLRAEDTAVYYCARQKGTTWFAHWGQGTLVTVSS VL: DIQMTQSPSSLSASVGDRVTITCRASESVDDNGISFMNWFQQKPGKAPKLLIYAASNQGSGVPSRFSGSGSGTDFTLTISSLQPEDFATYYCQQSKEVPWTFGQGTKVEIKR
– | – | – | binds | UM1-56 (antibody, mouse IgG1, V domains shown, Mouse hybridoma antibody purified on Protein G; primers were designed on mouse IgG1 and kappa; also called 鼠源PD-1单克隆抗体UM1-56) VH: EVKLVESGGGLVKPGGSLKLSCAASGFTFSTYGMSWVRQTPEKRLEWVATISGGGRYTYYPDSVKGRFTISRDNAKNNLYLQMSSLRSEDTALYYCARQKGTTWFAHWGQGTLVTVSA VL: not shown
